Test results taken from patent US20220348635A1, “COMPOSITIONS AND METHODS FOR NEUROLOGICAL DISEASES” (Coda Biotherapeutics, Inc., priority 2019, published 2022).

Columns and labels:
Assay type in all cases: cell-based
[1] = Rheobase shift in rat DRG neurons, TC-5619
Procedure: (§1) Using whole cell manual patch clamp electrophysiology in HEK293 cells and rat DRG neurons, the EC50 of the various engineered receptors disclosed herein to Ach and non-native ligands was measured. The rheobase shift was also measured in rat DRG neurons, which reflects the efficacy of the receptors. To calculate the rheobase, first, the amount of current that can produce an action potential was determined. Then the ligand was added, followed by a step wise increase in the current injected up to 700 pA. The current injected after addition of the ligand was divided by, the original current injected to obtain an action potential, to calculate the rheobase. The EC50 was calculated using the Hill equation with peak current measurements from escalating doses of ligand.

[2] = YFP quench plate reader assay, response to AZD-0328; conditions: LX293T YFP reporter cells
Summary of the method: (§2)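 LX293T cells stably expressing an anion-quenched YFP reporter were transiently transfected with DNA for double-substitution mutants of chimeric LGIC SEQ ID NO:33. Ligand, prepared at 2× in NaI-based ECS (pH 7.2), was added after a 17 sec baseline, and YFP quench was read over 2 min on a Flexstation3.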

[3] = YFP quench plate reader assay, response to RG3487; conditions: LX293T YFP reporter cells
Summary of the method: as §2

[4] = YFP quench plate reader assay, response to TC-6987; conditions: LX293T YFP reporter cells
Summary of the method: as §2

[5] = YFP quench plate reader assay, response to TC-5619; conditions: LX293T YFP reporter cells
Summary of the method: as §2

[6] = Manual patch clamp, HEK cell line, Facinicline/RG3487; conditions: HEK293 cells and cultured rat DRG sensory neurons
Procedure: FIG. 2A-FIG. 2B show the concentration-response curves of CR-11 (Chemogenic receptor-11, an engineered receptor comprising an amino acid sequence having the amino acid substitutions of Y115D and L131Q in SEQ ID NO: 33) expressed in HEK 293 cells to acetylcholine as well as to non-native ligands RG-3487 (SA-2, Synthetic Agonist-2). The responses were evaluated using manual patch clamp electrophysiology. Currents were normalized to unity for the maximal response. The continuous line through the data points is the best fit obtained with the Hill equation, and EC50s for each ligand are estimated from the concentration-response curves.
as §1, with “The current injected after addition of the ligand was divided by, the original current injected to obtain an action potential, to calculate the rheobase.” left out

B1: Y115D, L131Q in SEQ ID NO: 33: CR-11 (Chemogenic receptor-11): SEQ ID NO: 33 with substitutions Y115D and L131Q (protein)
chain: MRCSPGGVWLALAASLLHVSLQGEFQRKLYKELVKNYNPLERPVANDSQPLTVYFSLSLLQIMDVDEKNQVLTTNIWLQMSWTDHYLQWNVSEYPGVKTVRFPDGQIWKPDILLDNSADERFDATFHTNVQVNSSGHCQYLPPGIFKSSCPMDLKNFPMDVQTCKLKFGSWSYGGWSLDLQMQEADISGYIPNGEWDLVGIPGKRSERFYECCKEPYPDVTFTVTMRRRMGYYLIQMYIPSLLIVILSWISFWINMDAAPARVGLGITTVLTMTTQSSGSRASLPKVSYVKAIDIWMAVCLLFVFSALLEYAAVNFVSRQHKELLRFRRKRRHHKSPMLNLFQEDEAGEGRFNFSAYGMGPACLQAKDGISVKGANNSNTTNPPPAPSKSPEEMRKLFIQRAKKIDKISRIGFPMAFLIFNMFYWIIYKIVRREDVHNQ
modifications: synthetic sequence of chimeric LGIC
- Rheobase Shift; Rat DRG Neurons, +TC-5619 ([1]; TC5619 @ EC90): 625 ± 35 pA
- Rheobase Shift; Rat DRG Neurons, Baseline ([1]; receptor-expressing rat DRG neurons, before ligand): 163 ± 28 pA
- percent quench of YFP fluorescence, 100 nM azd ([2]; 100 nM AZD-0328): 12.15%
- percent quench of YFP fluorescence, 300 nM azd ([2]; 300 nM AZD-0328): 30.92%
- percent quench of YFP fluorescence, 30 uM azd ([2]; 30 uM AZD-0328): 68.65%
- percent quench of YFP fluorescence, 30 nM fac ([3]; 30 nM RG3487): 41.32%
- percent quench of YFP fluorescence, 100 nM fac ([3]; 100 nM RG3487): 59.51%
- percent quench of YFP fluorescence, 300 nM fac ([3]; 300 nM RG3487): 74.86%
- percent quench of YFP fluorescence, 10 uM fac ([3]; 10 uM RG3487): 78.53%
- percent quench of YFP fluorescence, 30 uM fac ([3]; 30 uM RG3487): 84.45%
- percent quench of YFP fluorescence, 1 uM tc6 ([4]; 1 uM TC-6987): 38.83%
- percent quench of YFP fluorescence, 10 uM tc6 ([4]; 10 uM TC-6987): 31.59%
- percent quench of YFP fluorescence, 500 uM tc6 ([4]; 500 uM TC-6987): 29.83%
- percent quench of YFP fluorescence, 1 nM brd ([5]; 1 nM TC-5619): 0.92%
- percent quench of YFP fluorescence, 3 nM brd ([5]; 3 nM TC-5619): −4.65%
- percent quench of YFP fluorescence, 10 nM brd ([5]; 10 nM TC-5619): 0.38%
- percent quench of YFP fluorescence, 30 nM brd ([5]; 30 nM TC-5619): 8.96%
- percent quench of YFP fluorescence, 100 nM brd ([5]; 100 nM TC-5619): 12.18%
- percent quench of YFP fluorescence, 300 nM brd ([5]; 300 nM TC-5619): −0.3%
- percent quench of YFP fluorescence, 1 uM brd ([5]; 1 uM TC-5619): 45.47%
- sensitivity to RG-3487 compared to wildtype nAchRa7 receptor [6]: more sensitive
